# Where a SMILES comes first, the peptide text is derived from it. Bridges are numbered along the chain shown (N, C = ends). [ ]: non-standard residue; d: D form. The star is where a group is joined. Succinimide(1-Et,3-yl) = CCN1C(=O)CC(*)C1=O; R8 = C=CCCCCCC[C@@](C)(N)C(=O)O; S5 = C=CCCC[C@](C)(N)C(=O)O; Aib = CC(C)(N)C(=O)O
# Experiment: circular dichroism
# Details: 10 mM sodium phosphate; pH 7; 1 °C; 50 uM
row,SMILES,helicity [rel %]
1,"CC[C@H](C)[C@@H]1NC(=O)[C@@](C)(NC(=O)[C@H](C)NC(=O)[C@H](CCC(N)=O)NC(=O)[C@H](C)NC(=O)[C@H](CCCCN)NC(=O)[C@H](CC(C)C)NC(=O)[C@H](CSC2CC(=O)N(CC)C2=O)NC(C)=O)CCCC=CCCC[C@@](C)(C(=O)N[C@@H](CCCNC(=N)N)C(=O)N[C@@H](Cc2ccccc2)C(=O)N[C@@H](CCC(N)=O)C(=O)N[C@@H](C)C(=O)N[C@@H](CCC(=O)O)C(=O)N[C@@H](CCCNC(=N)N)C(=O)N[C@@H](Cc2c[nH]cn2)C(=O)N[C@@H](C)C(=O)N[C@@H](CCCNC(=N)N)C(=O)N[C@@H](CCC(=O)O)C(=O)N[C@@H](CCCCN)C(N)=O)NC(=O)[C@H](CCCCN)NC(=O)[C@H](Cc2ccc(O)cc2)NC1=O (stereo partly shown) (Ac-C(Succinimide(1-Et,3-yl))LKAQA[S5]IYK[S5]RFQAERHAREK-NH2; staple 7-11)",65
2,"CC[C@H](C)[C@H](NC(=O)[C@H](CC(=O)O)NC(=O)C(C)(C)NC(=O)[C@H](CCC(N)=O)NC(=O)C(C)(C)NC(=O)[C@H](CCCCN)NC(=O)[C@H](CC(C)C)NC(=O)[C@H](CSC1CC(=O)N(CC)C1=O)NC(C)=O)C(=O)N[C@@H](Cc1ccc(O)cc1)C(=O)N[C@@H](CCCCN)C(=O)NC(C)(C)C(=O)N[C@@H](CCCNC(=N)N)C(=O)N[C@@H](Cc1ccccc1)C(=O)N[C@@H](CCC(N)=O)C(=O)NC(C)(C)C(=O)N[C@@H](CCC(=O)O)C(=O)N[C@@H](CCCNC(=N)N)C(=O)N[C@@H](Cc1c[nH]cn1)C(=O)NC(C)(C)C(=O)N[C@@H](CCCNC(=N)N)C(=O)N[C@@H](CCC(=O)O)C(=O)N[C@@H](CCCCN)C(N)=O (stereo partly shown) (Ac-C(Succinimide(1-Et,3-yl))LK[Aib]Q[Aib]DIYK[Aib]RFQ[Aib]ERH[Aib]REK-NH2)",49
3,"CC[C@H](C)[C@@H]1NC(=O)[C@H](CC(=O)O)NC(=O)[C@H](C)NC(=O)[C@H](CCC(N)=O)NC(=O)[C@](C)(NC(=O)[C@H](CCCCN)NC(=O)[C@H](CC(C)C)NC(=O)[C@H](CSC2CC(=O)N(CC)C2=O)NC(C)=O)CCCCCC/C=C/CCC[C@@](C)(C(=O)N[C@@H](CCCNC(=N)N)C(=O)N[C@@H](Cc2ccccc2)C(=O)N[C@@H](CCC(N)=O)C(=O)N[C@@H](C)C(=O)N[C@@H](CCC(=O)O)C(=O)N[C@@H](CCCNC(=N)N)C(=O)N[C@@H](Cc2c[nH]cn2)C(=O)N[C@@H](C)C(=O)N[C@@H](CCCNC(=N)N)C(=O)N[C@@H](CCC(=O)O)C(=O)N[C@@H](CCCCN)C(N)=O)NC(=O)[C@H](CCCCN)NC(=O)[C@H](Cc2ccc(O)cc2)NC1=O (stereo partly shown) (Ac-C(Succinimide(1-Et,3-yl))LK[R8]QADIYK[S5]RFQAERHAREK-NH2; staple (E) 4-11)",80
4,"CC[C@H](C)[C@@H]1NC(=O)[C@H](CC(=O)O)NC(=O)[C@H](C)NC(=O)[C@H](CCC(N)=O)NC(=O)[C@](C)(NC(=O)[C@H](CCCCN)NC(=O)[C@H](CC(C)C)NC(=O)[C@H](CSC2CC(=O)N(CC)C2=O)NC(C)=O)CCCCCC/C=C\CCC[C@@](C)(C(=O)N[C@@H](CCCNC(=N)N)C(=O)N[C@@H](Cc2ccccc2)C(=O)N[C@@H](CCC(N)=O)C(=O)N[C@@H](C)C(=O)N[C@@H](CCC(=O)O)C(=O)N[C@@H](CCCNC(=N)N)C(=O)N[C@@H](Cc2c[nH]cn2)C(=O)N[C@@H](C)C(=O)N[C@@H](CCCNC(=N)N)C(=O)N[C@@H](CCC(=O)O)C(=O)N[C@@H](CCCCN)C(N)=O)NC(=O)[C@H](CCCCN)NC(=O)[C@H](Cc2ccc(O)cc2)NC1=O (stereo partly shown) (Ac-C(Succinimide(1-Et,3-yl))LK[R8]QADIYK[S5]RFQAERHAREK-NH2; staple (Z) 4-11)",63

# Source: patent publication US11884708B2, “Stapled peptide inhibitors of nemo as potential anti-inflammatory and anti-cancer drugs” (INSTITUT PASTEUR, priority 2015, dated 2024)
